According to paper PMC12550615, “Bifunctional Cysteine-Engineered CAR‑T Cells Enable Thiol-Mediated Targeting to Overcome Antigen Escape in B Cell Lymphoma” (ACS Central Science, 2025):

Biological target: T1, recombinant, fluorescently labeled CD19 (Homo sapiens, UniProt P15391, fluorescent label (dye and site not stated))
T1 construct: CD19, B-lymphocyte antigen; In the functional rows this molecule stands for CD19 on JeKo-1 WT cells
Experiment: flow cytometry on cells; recombinant, fluorescently labeled CD19 on CAR-transduced T cells, compared to nontransduced T cells; methods in the Supporting Information
Details: one partner purified

T1 sequence (P15391 21-277): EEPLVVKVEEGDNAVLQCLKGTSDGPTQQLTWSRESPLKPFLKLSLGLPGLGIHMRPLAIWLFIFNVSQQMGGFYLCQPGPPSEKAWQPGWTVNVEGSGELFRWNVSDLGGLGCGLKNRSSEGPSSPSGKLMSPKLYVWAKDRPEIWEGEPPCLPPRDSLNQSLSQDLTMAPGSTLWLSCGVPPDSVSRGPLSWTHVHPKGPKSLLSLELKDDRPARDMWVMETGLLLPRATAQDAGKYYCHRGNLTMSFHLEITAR

B1: G228C CD19-CysCAR (anti-CD19 CAR with the scFv FMC63, CD19-41BB-CAR format, G228C) (scFv, V domains shown)
VH: EVKLQESGPGLVAPSQSLSVTCTVSGVSLPDYGVSWIRQPPRKGLEWLGVIWGSETTYYNSALKSRLTIIKDNSKSQVFLKMNSLQTDDTAIYYCAKHYYYGCSYAMDYWGQGTSVTVSS
VL: DIQMTQTTSSLSASLGDRVTISCRASQDISKYLNWYQQKPDGTVKLLIYHTSRLHSGVPSRFSGSGSGTDYSLTISNLEQEDIATYFCQQGNTLPYTFGGGTKLEIT
notes: scFv FMC63 (light chain domain, linker, heavy chain domain); CD8-derived hinge and transmembrane domains (Kymriah format); 4-1BB costimulatory domain (Kymriah format); Chimeric antigen receptor on T cells; source: primary human T cells, lentiviral transduction, on cells
B1: binds.
